This passage reports Kd results from article PMC8060278 (Nature Communications, 2021).

The target of one assay is GPIbα LBD (Homo sapiens) (UniProt P07359). Particulars: cited from earlier work.
A further assay deals with T1, purified VWF (Homo sapiens, UniProt P04275).
T1 construct: von Willebrand factor
The assay is described as follows: ELISA; VWF coated on plates (6 μg/mL in PBS); VHH81 detected with HRP-conjugated anti-VHH antibody. Particulars: both partners purified.

Another assay concerns the target T2, plasma-derived VWF (Homo sapiens, UniProt P04275).
T2 construct: von Willebrand factor from plasma (multimeric); In the flow-chamber functional row the VWF is that of human whole blood; also called plasma VWF; Humate-P; source: reconstituted in PBS from outdated lyophilized Humate-P (CSL-Behring)
The description is as above. Particulars: both partners purified.

GPIbα LBD (Homo sapiens), sequence (P07359 17-306): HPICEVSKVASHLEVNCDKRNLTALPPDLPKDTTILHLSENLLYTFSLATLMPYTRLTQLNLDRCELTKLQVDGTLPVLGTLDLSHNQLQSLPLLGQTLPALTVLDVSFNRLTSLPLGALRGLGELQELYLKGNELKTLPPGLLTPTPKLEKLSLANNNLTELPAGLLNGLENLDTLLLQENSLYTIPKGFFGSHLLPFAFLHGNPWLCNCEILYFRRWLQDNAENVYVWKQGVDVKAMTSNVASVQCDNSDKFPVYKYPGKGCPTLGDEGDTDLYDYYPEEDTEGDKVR

Turning to “von Willebrand factor AIM-A1 1238-1471 (from UniProt P04275)”, in the assay with GPIbα LBD (Homo sapiens), the Kd is 32 µM.

B1: monomeric recombinant VHH81 (construct not stated for this experiment) (VHH)
VHH: EVQLVESGGGLVQPGGSLRLSCAASGRTFSYNPMGWFRQAPGKGRELVAAISRTGGSTYYPDSVEGRFTISRDNAKRMVYLQMNSLRAEDTAVYYCAAAGVRAEDGRVRTLPSEYTFWGQGTQVTVSS
notes: also called PMP12A2h1; source: produced in bacteria
B1: the dissociation constant (Kd) in the assay with purified VWF and in the assay with plasma-derived VWF was about 0.02 µM in each case.
